This note sets out measurements from publication PMC8554105.

Assay [1] deals with T. brucei coronin coiled-coil domain (T. brucei) (UniProt Q57W63). The assay is described as follows: SAXS.
Assay [2] shares this target. Description: crystal structure.
The target is the same in assay [3]. Description: SEC.
Assay [4] has the same target. The assay is described as follows: cross-linking.
The target of assay [5] is T. brucei coronin coiled-coil domain V507M (T. brucei) (UniProt Q57W63). The assay is described as follows: crystal structure.
Assay [6] deals with T. brucei coronin coiled-coil domain V493I–V507M (T. brucei) (UniProt Q57W63). Description: crystal structure.

As to “T. brucei coronin coiled-coil domain (from UniProt Q57W63 477-523) (domain or fragment)”, the stoichiometry N in assay [1], in assay [2], in assay [3] and in assay [4] was 4 throughout.

“T. brucei coronin coiled-coil domain V507M (from UniProt Q57W63 477-523) (domain or fragment)” returned a stoichiometry N in assay [5] of 4.

On to “T. brucei coronin coiled-coil domain V493I–V507M (from UniProt Q57W63 477-523) (domain or fragment)”, for which, in assay [6], the stoichiometry N turned out to be 4.
